Here are results for 1 sequence from article PMC10566545.

The target in the data set is RNAP containing His-RpoA (wild type) (Pseudomonas aeruginosa PAO1) (UniProt O52760+Q51561+Q9HWC9+Q9HTM1). Nature of the data set: EMSA. To be noted: 10 mM Tris-HCl, 50 mM KCl, 1 mM DTT, 1% glycerin, 10 mM MgCl2, 1 ug/ul poly(dI-dC), pH 7.5, room temperature, 30 min; 30 ng probe, 0.2 ug protein. (In general: In EMSA bound probe runs differently from free probe, usually more slowly.)
RNAP containing His-RpoA (wild type) (Pseudomonas aeruginosa PAO1), sequence (O52760 whole entry, chain 1 of 4): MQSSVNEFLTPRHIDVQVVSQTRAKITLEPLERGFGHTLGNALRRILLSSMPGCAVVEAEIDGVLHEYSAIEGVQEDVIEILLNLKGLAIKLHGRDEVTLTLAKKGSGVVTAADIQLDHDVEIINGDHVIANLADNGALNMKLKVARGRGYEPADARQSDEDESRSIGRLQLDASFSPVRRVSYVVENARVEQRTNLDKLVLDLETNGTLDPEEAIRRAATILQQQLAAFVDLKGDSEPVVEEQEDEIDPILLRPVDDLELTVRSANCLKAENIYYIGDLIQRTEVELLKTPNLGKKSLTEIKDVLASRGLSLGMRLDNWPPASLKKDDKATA
RNAP containing His-RpoA (wild type) (Pseudomonas aeruginosa PAO1), sequence (Q51561 whole entry, chain 2 of 4): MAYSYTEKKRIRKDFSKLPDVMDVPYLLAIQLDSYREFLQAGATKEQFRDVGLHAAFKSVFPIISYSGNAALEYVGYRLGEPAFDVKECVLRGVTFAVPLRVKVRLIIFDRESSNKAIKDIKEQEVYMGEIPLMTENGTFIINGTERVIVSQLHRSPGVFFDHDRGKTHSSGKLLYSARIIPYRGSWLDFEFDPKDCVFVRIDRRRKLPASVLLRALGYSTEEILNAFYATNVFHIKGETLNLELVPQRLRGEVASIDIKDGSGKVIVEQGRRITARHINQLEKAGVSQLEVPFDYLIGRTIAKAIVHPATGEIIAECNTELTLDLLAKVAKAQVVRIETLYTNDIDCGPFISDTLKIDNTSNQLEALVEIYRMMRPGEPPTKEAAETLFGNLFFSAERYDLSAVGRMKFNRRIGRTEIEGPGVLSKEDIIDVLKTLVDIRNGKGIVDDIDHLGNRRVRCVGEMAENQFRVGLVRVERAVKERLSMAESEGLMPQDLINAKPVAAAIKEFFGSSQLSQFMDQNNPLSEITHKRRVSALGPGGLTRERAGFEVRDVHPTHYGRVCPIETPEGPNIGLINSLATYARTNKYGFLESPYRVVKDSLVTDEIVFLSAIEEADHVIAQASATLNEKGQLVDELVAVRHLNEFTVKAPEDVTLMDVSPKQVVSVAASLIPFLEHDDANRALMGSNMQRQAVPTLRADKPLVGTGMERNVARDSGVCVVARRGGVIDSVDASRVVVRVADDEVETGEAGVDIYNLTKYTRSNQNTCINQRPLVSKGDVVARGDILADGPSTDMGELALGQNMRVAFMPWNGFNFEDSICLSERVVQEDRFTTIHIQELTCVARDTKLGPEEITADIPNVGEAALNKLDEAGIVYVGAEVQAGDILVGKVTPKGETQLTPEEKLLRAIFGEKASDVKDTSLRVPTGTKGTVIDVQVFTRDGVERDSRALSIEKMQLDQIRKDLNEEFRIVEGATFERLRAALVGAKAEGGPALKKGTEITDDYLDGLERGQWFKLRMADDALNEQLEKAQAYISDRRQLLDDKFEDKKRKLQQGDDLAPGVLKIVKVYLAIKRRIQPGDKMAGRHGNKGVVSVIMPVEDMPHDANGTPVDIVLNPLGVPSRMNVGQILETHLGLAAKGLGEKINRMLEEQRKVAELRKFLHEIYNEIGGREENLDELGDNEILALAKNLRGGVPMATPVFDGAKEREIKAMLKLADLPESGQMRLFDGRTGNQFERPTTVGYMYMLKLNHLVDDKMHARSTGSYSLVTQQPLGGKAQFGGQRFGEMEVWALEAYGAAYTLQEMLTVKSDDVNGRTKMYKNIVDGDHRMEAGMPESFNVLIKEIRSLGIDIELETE
RNAP containing His-RpoA (wild type) (Pseudomonas aeruginosa PAO1), sequence (Q9HWC9 whole entry, chain 3 of 4): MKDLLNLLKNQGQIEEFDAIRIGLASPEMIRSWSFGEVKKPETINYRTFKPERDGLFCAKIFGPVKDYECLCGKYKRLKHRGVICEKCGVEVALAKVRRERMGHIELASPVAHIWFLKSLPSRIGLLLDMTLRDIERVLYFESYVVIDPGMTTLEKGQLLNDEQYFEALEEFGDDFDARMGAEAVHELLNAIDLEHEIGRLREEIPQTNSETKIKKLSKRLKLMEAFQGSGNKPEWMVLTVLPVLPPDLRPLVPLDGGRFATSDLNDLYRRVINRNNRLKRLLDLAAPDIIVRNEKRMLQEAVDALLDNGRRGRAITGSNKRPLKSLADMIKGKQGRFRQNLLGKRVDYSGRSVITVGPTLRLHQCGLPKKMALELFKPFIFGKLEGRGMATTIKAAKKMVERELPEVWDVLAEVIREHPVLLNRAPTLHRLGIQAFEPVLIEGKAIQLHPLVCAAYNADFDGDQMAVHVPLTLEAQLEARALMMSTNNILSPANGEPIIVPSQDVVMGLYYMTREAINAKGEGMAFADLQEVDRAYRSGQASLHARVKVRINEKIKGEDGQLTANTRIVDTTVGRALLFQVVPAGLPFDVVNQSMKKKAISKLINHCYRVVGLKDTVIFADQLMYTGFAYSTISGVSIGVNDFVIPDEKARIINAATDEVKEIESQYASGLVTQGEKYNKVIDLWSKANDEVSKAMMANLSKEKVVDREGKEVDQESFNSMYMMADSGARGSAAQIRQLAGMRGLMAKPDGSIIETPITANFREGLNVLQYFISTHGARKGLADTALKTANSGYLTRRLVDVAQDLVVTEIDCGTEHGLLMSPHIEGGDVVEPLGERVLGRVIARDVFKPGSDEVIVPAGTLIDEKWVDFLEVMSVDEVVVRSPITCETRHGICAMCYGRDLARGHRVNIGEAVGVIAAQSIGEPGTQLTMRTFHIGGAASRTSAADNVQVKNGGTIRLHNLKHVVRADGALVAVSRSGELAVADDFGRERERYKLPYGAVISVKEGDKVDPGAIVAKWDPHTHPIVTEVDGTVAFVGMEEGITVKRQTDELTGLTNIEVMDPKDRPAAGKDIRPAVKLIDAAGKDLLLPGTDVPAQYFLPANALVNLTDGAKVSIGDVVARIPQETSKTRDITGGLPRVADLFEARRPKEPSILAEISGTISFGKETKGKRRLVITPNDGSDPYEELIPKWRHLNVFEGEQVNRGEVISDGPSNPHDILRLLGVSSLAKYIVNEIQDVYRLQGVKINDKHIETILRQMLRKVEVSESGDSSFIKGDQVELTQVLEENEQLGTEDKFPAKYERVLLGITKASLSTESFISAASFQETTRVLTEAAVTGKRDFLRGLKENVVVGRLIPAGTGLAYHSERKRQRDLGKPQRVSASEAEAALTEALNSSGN
RNAP containing His-RpoA (wild type) (Pseudomonas aeruginosa PAO1), sequence (Q9HTM1 whole entry, chain 4 of 4): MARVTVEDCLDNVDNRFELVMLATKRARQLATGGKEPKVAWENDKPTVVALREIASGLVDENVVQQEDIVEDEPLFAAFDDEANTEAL

For the sequence “AGTCTCTGAGCCCTCCGGCAGCTACCCGCACGAGGCGTCGCAACGGGAAAATCGATCGCGCGCCGCGGGTGTGCGGCTTATTCCATCGAAAGCACTGTCCATAACCATCGACTGTTACAGAAAACGAAAAACCATGTATCACTGTTCGTGATAATCAAAATCTCGTCGTTCGATTAGTTCCCTGCCGGAGCAGCCCGCAGACTTCGCCAATCCCGAAAAACCGACTGGCGGAGTCAAGCATGGTTTTTT (double strand) [PmexE probe (mexEF-oprN promoter)]”, the binding entry is recorded as “binds”.
